B1: Arf-GAP with Rho-GAP domain, ANK repeat and PH domain-containing protein 3 (Mus musculus), Q8R5G7 (parent)
chain: MAAPQDLDIAVWLALVHLEQYADTFRRHGLATAGAAQHLGHEELRHLGISATGHRKRILRLLRAGSAEGFLDSHLDNTMEPTPSPAPDAQPPKPVPKPRTVFGLSNPATAQRPGLSPIFWDPEVSRNSECTQRSSPLLPSSSEQPSVPNTMEMMPNAIYFGLDLRGRAQAAQDVTPDSSQATVPTPAFRPTTGTVHIMDPGCLYYGVQPVGIPGASDRRDGRGVCQERAEHRQDLETREDAGYASLELPGDSILSLPTQDAETSDDLISPYASFSSTADRPVPLLSGWLDKLSPQGNYVFQRRFVQFNGRSLMYFGSDKDPFPKGVIPLTAIEMTRSSKDNKFQVITGQRVFVFRTESEAQRDLWCSTLQSCLKEQRLLGHPRPPHPPRPLRTGTLELRGHKAKVFAALIPGELALYKSEQAFSLGIGICFIELQGCSVRETKSRSFDLLTPHRCFSFTAESGGARQSWAAALQEAVTETLSDYEVAEKVWSNPANRHCADCRASRPDWAAVNLGVVICKQCAGQHRALGSGISKVQSLKLDTSVWSNEIVQLFIVLGNDRANCFWAGALPPGEGLHPDSAPGPRGEFISRKYKLGLFRKPHPRHPDHSQLLQALCAAMAGPNLLKNMAQLLCVETSEGEEPLSPSALNGSLLSLLPSDSPGVYNEVVVPATYRGFLYCGSISNKAGAPPLRRGRDAPPRLWCVLGAALEMFASESSPEPLSLLQPQDIVCLGVSPPPADPGDLDRFPFSFELILTGGRIQHFATDGADSLEAWISAVGKWFSPLSCHQLLGPGLLRMGRLWLRSPSHAGLAPGLWLSGFGLLRGDHLFLCPAPGPGPPAPEDMVHLRRLQEISVVSAADTPDKKEHLVLVETGRTLYLQGEGRLDFAAWNTAIGGAAGGGGTGLQEQQMSRGDIPIIVDACISFVTQHGLRLEGVYRKGGARARSLRLLAEFRRDARSVKLRPREHFVEDVTDTLKRFFRELDDPVTSARLLPRWREAAELSQKNQRLEKYKEVISCLPRVNRRTLATLIGHLYRVQKCASLNQMCTRNLALLFAPSVFQTDGRGEHEVRVLQELIDGYISVFDIDSDQAAQIDLEVSLITTWKDVQLSQAGDLIMEVYIEQQLPDNCVTLKVSPTLTAEELTNQVLEMRGAASGTDLWVTFEILEHGELERPLHPKEKVLEQALQWCQLPEPCSASLLLRKVSMAHAGCLFTGVRRESPRVGLLRCREEPPRLLGNRFQERFFLVRGRCLLLLKEKKSSKPEREWSLEGAKVYLGIRKKLKPPTLWGFTLILEKMHLCLSCMDEEEMWDWTTSILKAQHDDQQSVVLRRRSSSDLARQKFGTMPLLPIRGDDSGATLLSANQTLRRLHNRRTLSMFFPMKSPQGSVEEQDELEEPVYEEPVYEEVGAFPELTKDTTFSSTWEWSAKSDPSLTSQRSFDQPPLSKASMLGHEERIPDPPPGPPSKSSSQARGSLEEQLLQELNNLILRKGEPASCPESSSQPTSPQAPSPTSLPTPTPSLPTQPPCTSNPPSSQPLT

Variants of: B1
Details: with src_human SRC

effect of a mutation on the interaction | Variant
decreasing interaction | Y1399F;Y1404F

Source: IntAct's records for PubMed 15546919
